{"source": "patent US10709762B2", "about": "“Use of M-CSF for preventing or treating myeloid cytopenia and related complications” (priority 2013, dated 2020)", "molecules": {"B1": {"name": "M-CSF: recombinant murine macrophage colony stimulating factor from PeproTech, used in Example 1 (protein, UniProt P07141 33-552, looked up)", "Macrophage colony-stimulating …": "KEVSEHCSHMIGNGHLKVLQQLIDSQMETSCQIAFEFVDQEQLDDPVCYLKKAFFLVQDIIDETMRFKDNTPNANATERLQELSNNLNSCFTKDYEEQNKACVRTFHETPLQLLEKIKNFFNETKNLLEKDWNIFTKNCNNSFAKCSSRDVVTKPDCNCLYPKATPSSDPASASPHQPPAPSMAPLAGLAWDDSQRTEGSSLLPSELPLRIEDPGSAKQRPPRSTCQTLESTEQPNHGDRLTEDSQPHPSAGGPVPGVEDILESSLGTNWVLEEASGEASEGFLTQEAKFSPSTPVGGSIQAETDRPRALSASPFPKSTEDQKPVDITDRPLTEVNPMRPIGQTQNNTPEKTDGTSTLREDHQEPGSPHIATPNPQRVSNSATPVAQLLLPKSHSWGIVLPLGELEGKRSTRDRRSPAELEGGSASEGAARPVARFNSIPLTDTGHVEQHEGSSDPQIPESVFHLLVPGIILVLLTVGGLLFYKWKWRSHRDPQTLDSSVGRPEDSSLTQDEDRQVELPV"}}, "key": {"single HSC": {"test_system": "single HSC", "assay": "Single cell gene expression profiling of HSC (nanofluidic real time PCR)", "type": "cell-based, mice", "conditions": "16 h culture in the presence of M-CSF", "description": "CD150+CD34− KSLF HSC or CD150+CD34− CD48− KSLF HSC (single cells) were sorted into S-clone SF-03 medium (Sanko Jyunyaku) with 10% FBS supplemented with 100 U/ml penicillin and […] streptomycin (both Invitrogen) and cultivated in uncoated U-Shape 96 well plates (Greiner) in 100 μl SCM, 20 ng/ml rSCF, 50 ng/ml rTPO+/−100 ng/ml rM-CSF or 100 ng/ml rGM-CSF or 100 ng/ml rG-CSF. All cytokines were murine and from PeproTech. Cell viability was analyzed by AnnexinV and Propidium iodide FACS staining^35.\nSingle cells were sorted using the autoclone module on a FACSARIA™ III sorter (Becton-Dickinson) directly into 96 wells plate in the CELLS DIRECT™ Reaction Mix (Invitrogen). Individual cell lysis, cDNA synthesis and amplification was performed according to FLUIDIGM Advanced Development Protocol and single cell microfluidic real time PCR using Dynamic Array IFCs (BIOMARK™ FLUIDIGM) was performed by a trained technician of FLUIDIGM Inc. Preamplified products (22 cycles) were diluted 5-fold prior to analysis with Universal PCR Master Mix and inventoried TAQMAN® gene expression assays (ABI) in 96.96 DYNAMIC ARRAY™ on a BIOMARK™ system (FLUIDIGM). Ct values were calculated from the system's software (BIOMARK™ Real-time PCR Analysis; FLUIDIGM) and filtered according to a set of quality control rules outlined below."}, "HSC [1]": {"test_system": "HSC", "assay": "Transplantation of M-CSF primed HSC into sub-lethally irradiated recipients, analysis of progeny", "type": "in vivo, mice", "description": "(§1) CD45.1 and C57Bl/6 mice were obtained from Charles River. PU.1-GFP^31 M-CSFR^−/−27 and PU.1^fl/fl 32 mice have been described. Age- and sex-matched CD45.1 recipients that were reconstituted as described^3 with CD45.2 foetal liver from wt or M-CSFR^−/− embryos^27 and PU.1^fl/fl or PU.1^fl/fl::MxCre bone marrow, were used to isolate CD150+CD34− KSLF HSC not earlier than 8 weeks after reconstitution. For in vivo injections the 10 μg/mouse M-CSF, 5 mg/kg LPS (055:B5 E. coli) or sorted cells were injected in 100 μl of PBS into the retro-orbital sinus. For HSC transplantation 400 CD150+CD34− KSLF HSC were sorted from CD45.2 mice and mixed with 100.000 Lin^+ Sca^− CD45.1 carrier cells prior to injection into sub-lethally irradiated (4.5 Gy) CD45.1 recipient mice. For competitive transplantations, 1300 CD150+, CD34-KSLF HSC were isolated 16 h after control or 10 μg M-CSF injection from actin-GFP CD45.2 mice^33, mixed with equal numbers of CD45.2 competitor HSC and injected with 300.000 Lin^+ Sca^− RC-lysed CD45.1 carrier cells into sub-lethally irradiated (4.5 Gy) CD45.1 recipients. Contribution to platelets, CD19+ B-cells and CD11b+ myeloid cells was analysed after 4 and 6 weeks in the blood from mice with at least 5% GFP+ donor cells. For PU.1 deletion PU.1^fl/fl or PU.1^fl/fl::MxCre reconstituted mice were intra-peritoneally injected with 5 μg/g Polyinosinic:polycytidylic acid 7 and 9 days prior to control (PBS) or 10 μg M-CSF injection. All mouse experiments were performed under specific pathogen-free conditions in accordance with institutional guidelines.\nFor FACS sorting and analysis we used described staining protocols^3 and published stem and progenitor cell definitions^34, FACSCANTO™ BD™ LSRII and FACSARIA™ III equipment and DIVA™ software (BECTON-DICKINSON), analysing only populations with at least 200 events. For HSC analysis we used antibodies anti-CD34-FITC (clone RAM34, BD BIOSCIENCES), anti-CD135-PE (clone A2F10.1, BD BIOSCIENCES), anti-CD150-Pe-Cy7 (clone TC15-12F12.2, BIOLEGEND), anti-CD117-APC H7 (clone 2B8, BD BIOSCIENCES), anti-Sca-1-Pe-Cy5 (clone D7, BIOLEGEND), anti-CD48-APC (clone HM48-1, BIOLEGEND). Diverging from this or in addition we used antibodies anti-CD34 Alexa 700 (clone RAM34, BD BIOSCIENCES), anti-CD16/32 PE (clone 2.4G2, BD BIOSCIENCES), anti-CD11b PE-CF594 (clone M1/70, BD BIOSCIENCES), anti-CD19PE-Cy7 (clone 1D3, BD biosciences), anti CD45.2 APC (clone 104, BD BIOSCIENCES) and anti CD45.1 Pacific Blue (clone A20, BD BIOSCIENCES) for progenitor and blood cell analysis. LIVE/DEAD Fixable Violet Dead cell dye (Invitrogen) was used as viability marker."}, "[2]": {"test_system": "endogenous PU.1 protein in single HSC", "assay": "Intra-splenic injection of CFSE-labelled HSC, PU.1 immunofluorescence", "type": "in vivo, mice", "conditions": "M-CSF receptor deficient HSC", "description": "For analysis of HSC in vivo, 1500 to 7000 FACS sorted CD150^+ CD34^− KSLF HSC were stained 10 min at 37° C. with 3 μM CFSE (Invitrogen) in PBS/0.5% BSA, washed 3× in PBS/0.5% BSA and injected in 30 μl PBS (containing or not 1 μg of isotype control or AFS98 α-M-CSFR antibody^26 or 2 μM GW2580, 10 μM Ly29400, 10 μM PD98059 or 2 μM SU6656 inhibitors in 0.9% DMSO) into the spleen of anesthetized mice. After 24 h spleens were embedded in OCT (Tissue-Tek, Sakura) and frozen at −80° C. Cryostat sections (5 μm) were prepared from the entire organ, dried and fixed 10 min in 4% PFA/PBS at room temperature (RT) and every 10th section was further processed. After washes in PBS, slides were blocked for 1 hour at RT in PBS/2% BSA/1% Donkey serum/1% FCS/0.1% saponin, incubated for 36 h at 4° C. with anti-PU.1 polyclonal antibody (Santa Cruz) in PBS/0.05% saponin (1:50), washed and incubated with secondary Alexa 546-donkey-anti-rabbit antibody (Molecular probes) in PBS/0.05% saponin (1:500). All immunofluorescence samples were mounted with ProLong Gold DAPI antifade (Molecular probes) and analyzed by multifluorescent microscopy on a Zeiss Axioplan 2. All CFSE+ cells were analysed for PU.1 expression up to ≥30 or ≥50 cells as indicated. Cell counts and staining were verified by a second trained microscopist blinded to sample identity. […]"}, "HSC [3]": {"test_system": "HSC", "assay": "Competitive transplantation of M-CSF primed HSC, blood cell contribution", "type": "in vivo", "description": "as §1"}}, "data": [{"molecule": "B1", "values": [{"measurement": "cells with a myeloid gene expression signature", "setting": "single HSC", "result": "strong increase"}, {"measurement": "number of PU.1+ cells", "setting": "single HSC", "result": "doubling"}, {"measurement": "myeloid differentiation preference of M-CSF primed HSC after deletion of PU.1", "setting": "HSC [1]; HSC with deleted PU.1 alleles, spleen 2 weeks", "result": "abolished"}, {"measurement": "ratio of GMP to MEP progenitors in the spleen", "setting": "HSC [1]; in vivo M-CSF primed CD45.2 HSC, after 2 weeks", "result": "increased ratio"}, {"measurement": "myeloid to lymphoid cell ratio in peripheral blood", "setting": "HSC [1]; in vivo M-CSF primed HSC, after 4 weeks", "result": "increased myeloid to lymphoid cell ratio"}, {"measurement": "ratio of GMP to MEP developing from PU.1+ HSC versus PU.1- HSC", "setting": "HSC [1]; in vivo priming with M-CSF, spleen 2 weeks after transplantation", "result": "higher ratio"}, {"measurement": "PU.1 activation in M-CSFR-/- HSC, M-CSF stimulated versus control recipients", "setting": "[2]", "result": "no higher activation of PU.1"}, {"measurement": "long-term multi-lineage contribution", "setting": "HSC [3]", "result": "did not compromise"}, {"measurement": "myeloid contribution compared to platelet and lymphoid contribution in the blood", "setting": "HSC [3]; after 6 weeks", "result": "re-equilibrated"}, {"measurement": "myeloid contribution compared to platelet and lymphoid contribution in the blood", "setting": "HSC [3]; at 4 weeks", "result": "myeloid advantage"}]}]}
